Data published in patent US20170173114A1, “METHODS AND COMPOSITIONS FOR INDUCTION OF UCP1 EXPRESSION” (Joslin Diabetes Center, Inc., priority 2014, published 2017).
“Also recorded” adds a separate entry of the source.

Legend:
[1] = tested on: UCP1; assay: UCP1 mRNA expression in SVF cells from subcutaneous white adipose tissue (SQ-SVF); assay type: cell-based, C57BL/6 mice; conditions: growth media, 3 days; vs control
Procedure: Eight 6-week old C57BL/6 male mice were sacrificed. Interscapular BAT and axillary subcutaneous WAT were removed, minced and digested with 1 mg/ml collagenase for 45 minutes at 37° C. in DMEM/F12 media, containing 1% BSA and antibiotics. Digested tissues were filtered through sterile 150 μm nylon mesh and centrifuged at 250×g for 5 minutes. The floating fractions consisting of adipocytes were discarded and the pellets representing the SVF were then resuspended in erythrocyte lysis buffer (154 mM NH4Cl, 10 mM KHCO3, 0.1 mM EDTA) for 10 minutes to remove red blood cells. The cells were further centrifuged at 500×g for 5 minutes, plated at 8×10^5 cells/well of a 24-well plate and grown at 37° C. in DMEM/F12 supplemented with 10% FBS at 37° C.
To determine if FGF6 treatment of primary adipose progenitors could also increase UCP1 expression as observed in Example 1, stromo-vascular fraction (SVF) cells, which comprise adipocyte progenitors, were isolated from interscapular brown adipose tissue (BAT-SVF) and subcutaneous white adipose tissue (SQ-SVF). SVF cells were subsequently treated with FGF6 or FGF21 in growth media (DMEM+10% FBS) for 3 days, followed by determination of UCP1 expression. As described in FIGS. 9A and 9B, FGF21 treatment had little effect on UCP1 mRNA expression in either type of SVF cells, as compared to the control. […]

[2] = Glucose tolerance test in Chow or high fat diet mice; assay type: in vivo, C57BL6 mice; conditions: Chow or HFD mice, i.p. glucose 2 mg/g after 16 h fast; particularly in obese HFD mice
Procedure: C57BL6 mice were fed either the Chow diet or a high fat diet (HFD) and were fasted overnight (16 h) prior to intraperitoneal injection of 2 mg/g body weight of glucose using a 20% (w/v) solution.

[3] = tested on: WT-1 murine brown preadipocytes; assay: Oil Red O staining of lipid accumulation in WT-1 cells; assay type: cell-based; conditions: WT-1, absence of induction cocktail
Procedure: Cell culture dishes were washed twice with phosphate-buffered saline and fixed with 10% buffered formalin overnight at 4° C. Cells were then stained for 2 hours at room temperature with a filtered oil red O solution (0.5% oil red O in isopropyl alcohol), washed twice with distilled water, and visualized.
The effect of FGF6 on differentiation of WT-1 murine brown preadipocytes was also examined. WT-1 cells can be induced to undergo brown adipocyte differentiation, characterized by lipid accumulation and expression of adipogenic and brown fat markers, as described above (Klein et al. (1999) J Biol Chem 274:34795; Tseng et al. (2005) Nat Cell Biol 7:601). WT-1 cells were treated with FGF6 in growth media (DMEM+10% FBS), a vehicle control (“control” or “C” referred to in FIGS. 3A-D), or induction media (“induction” or “I” referred to in FIGS. 3A-D) as described above for seven days. Following the treatment, cells were examined for the color of the culture media in combination with oil Red O staining, expression of adipogenic markers, expression of brown fat markers, immunofluorescent staining of cells with UCP1 and DPAI, and Western blot analysis to determine the presence of UCP1 and β-tubulin. The results are described in FIGS. 3A to 3D.

[4] = tested on: UCP1; assay: UCP1 expression in 3T3-F442A white preadipocytes overexpressing FGF6; assay type: cell-based; conditions: constitutive overexpression of FGF6 in 3T3-F442A
Procedure: FGF6 lentiviral vector was generated by cloning mouse FGF6 cDNA into a lentiviral vector. Lentiviruses were obtained by transfecting 293T cells with lentiviral vectors. Viral supernatant was filtered through 0.45 um filter before applying to cells. Transduction was accomplished by incubating cells with virus supernatant. Stable cells were established by drug selection. The lentiviral vector contains a drug resistant gene for selection.
To assess FGF6's role in the regulation of mitochondrial activity, FGF6 was stably expressed in WT-1 brown preadipocytes and 3T3-F442A white preadipocytes. Stable cells were generated by viral infection followed by drug selection.
As mentioned above, 3T3-F442A white preadipocytes were also used to determine FGF6's role in mitochondrial activity regulation.

[5] = tested on: UCP1; assay: Marker mRNA expression and culture media acidification in mature brown adipocytes; assay type: cell-based, murine; conditions: seven days
Procedure: The effect of FGF6 on murine mature brown adipocytes was also examined. Mature brown adipocytes were treated with FGF6 in growth media (DMEM+10% FBS), a vehicle control (buffer) (“buffer” referred to in FIG. 22), or BMP7 for seven days. Following the treatment, cells were examined for the color of the culture media in combination with oil Red O staining, expression of adipogenic markers, and expression of brown fat markers.
mRNA expression of UCP1, PPARγ, PTGS2, NDST3 and SIRT1 was measured in the mature adipocytes exposed to either the control, BMP7, or FGF6.

B1: FGF6: fibroblast growth factor 6; recombinant human FGF from R&D Systems, or mouse FGF6 cDNA overexpressed by lentiviral vector (protein)
chain: KRQRRLYCNVGIGFHLQVLPDGRISGTHEENPYSLLEISTVERGVVSLFGVRSALFVAMNSKGRLYATPSFQEECKFRETLLPNNYNAYESDLYQGTYIALSKYGRVKRGSKVSPIMTVTHFLPRI
increase in UCP1 mRNA expression in SVF from subcutaneous WAT [1]: ~200 fold | glucose tolerance [2]: enhanced glucose tolerance; also recorded: improved glucose tolerance | lipid accumulation by Oil Red O staining [3]: very little to no lipid accumulation | UCP1 expression [4]: resulted in UCP1 expression; also recorded: marked increases | acidification of cell culture media, mature brown adipocytes [5]: no acidification of cell culture media | UCP1 mRNA expression in mature adipocytes ([5]; vs buffer or BMP7): does not induce
